Reference: patent US20210380649A1 (BIO TECHNE, published 2021)

Legend:
mouse Wnt1 [1] = molecular target: T1, mouse Wnt1 (mouse, UniProt P04426 28-370); assay: SDS-PAGE with Coomassie Blue of the gel-filtration purified complex, densitometry, FIG. 4F
T1 construct: In the co-IP and chromatography it is the protein found in CHO conditioned media; also called mWnt1; mWnt-1
T1 sequence (looked up): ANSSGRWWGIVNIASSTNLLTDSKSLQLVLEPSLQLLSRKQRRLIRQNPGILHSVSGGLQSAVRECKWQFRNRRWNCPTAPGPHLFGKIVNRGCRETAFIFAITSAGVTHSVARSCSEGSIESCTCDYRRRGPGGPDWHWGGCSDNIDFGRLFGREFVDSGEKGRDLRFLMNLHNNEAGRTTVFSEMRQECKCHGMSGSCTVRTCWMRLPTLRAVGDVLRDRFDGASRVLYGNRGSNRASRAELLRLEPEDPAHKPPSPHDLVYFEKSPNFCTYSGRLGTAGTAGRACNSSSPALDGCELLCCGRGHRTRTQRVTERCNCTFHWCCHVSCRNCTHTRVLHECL
Text: FIG. 4A. Conditioned media from CHO cells co-expressing msFRP1 and mWnt-1 were loaded onto SP Sepharose column, and bound proteins were eluted with a linear gradient of high salt buffer. The distinct late elution peak was the position that sFRP was usually eluted. FIG. 4B. Fractions collected from SP elution were loaded onto 15 percent (%) SDS-PAGE and stained with silver. The 37 kDa bands represent sFRP1. FIG. 4C. The same fractions of FIG. 4B were subjected to Western blot probed with antibody against mWnt-1. mWnt-1 was detected as a ˜52 kDa band that is present in the same fractions where sFRP1 was detected. FIG. 4D. Pool from a SP Sepharose column was loaded and eluted from a gel filtration (Superdex 200) column. The earlier-eluted peak contained the sFRP1/Wnt-1 complex, while the later-eluted peak contained the free sFRP. FIG. 4E. Fractions collected from gel filtration elution were loaded onto a 15% SDS-PAGE gel and stained with Coomassie blue. The lower band (37 kDa) represents sFRP1 and the upper band (52 kDa) represents Wnt-1. FIG. 4F. sFRP1/Wnt-1 complex purified from a gel filtration column was loaded onto a 15% SDS-PAGE gel and stained with Coomassie blue. Two bands, at 37 kDa and 52 kDa, were observed, with a roughly 1:1 molar ratio.

[2] = molecular target: T2, recombinant mouse (rm) Wnt3a biotinylated protein (mouse, UniProt P27467 19-352, biotinylated (sites not given)); assay: ELISA: in-solution binding with biotinylated mouse Wnt3a (100 ng/mL), capture on streptavidin plate, detection with goat anti-sFRP1 antibody, FIG. 8
T2 construct: also called biotinylated mouse Wnt3a protein
T2 sequence (P27467 19-352 limits assumed): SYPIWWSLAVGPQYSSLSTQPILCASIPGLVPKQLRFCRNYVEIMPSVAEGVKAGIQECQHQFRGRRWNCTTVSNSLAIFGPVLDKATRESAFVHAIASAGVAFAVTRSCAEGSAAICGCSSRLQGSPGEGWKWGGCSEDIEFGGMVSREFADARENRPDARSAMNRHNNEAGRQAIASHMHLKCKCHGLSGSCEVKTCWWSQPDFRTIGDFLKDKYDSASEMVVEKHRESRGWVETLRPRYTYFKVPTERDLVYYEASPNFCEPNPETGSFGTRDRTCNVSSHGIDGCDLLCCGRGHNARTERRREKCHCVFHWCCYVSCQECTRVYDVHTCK
Method: (§1) Purified recombinant mouse sFRP proteins were tested in ELISA binding assays with a biotinylated mouse Wnt3a protein. […] His tagged-mouse sFRP2 and His tagged-mouse sFRP3 were detected with a mouse anti-His antibody. HA tagged-mouse sFRP5 was detected with a mouse anti-HA antibody.
(§2) A 96-well tissue culture plate was blocked with 1% BSA in PBS and used as an in-solution binding plate. 120 μL of total volume containing 100 ng/mL recombinant mouse (rm) Wnt3a biotinylated protein and sFRPs (1:3 serial dilution) were incubated overnight at 4° C. in the binding plate. Then 100 μL of binding solution was transferred to streptavidin coated 96-well ELISA plate, incubating overnight at 4° C. followed by the HRP detection. The mouse sFRP1 was detected with a goat anti-mouse sFRP1 antibody, mouse sFRP2 and mouse sFRP3 were His-tagged and were detected with a mouse anti-His antibody, mouse sFRP4 was detected with a sheep anti-mouse sFRP4 antibody, and the HA-tagged mouse sFRP5 was detected with a mouse […]. […] secondary antibodies were used to detect the primary antibodies followed by colorimetric readouts.

mouse Wnt1 [3] = molecular target: T1, mouse Wnt1; assay: cell-based or functional assay
[4] = molecular target: T2, recombinant mouse (rm) Wnt3a …; assay: ELISA: in-solution binding with biotinylated mouse Wnt3a (100 ng/mL), capture on streptavidin plate, detection with mouse anti-His antibody, FIG. 8
Method: as §1, §2

[5] = molecular target: T2, recombinant mouse (rm) Wnt3a …; assay: ELISA: in-solution binding with biotinylated mouse Wnt3a (100 ng/mL), capture on streptavidin plate, detection with mouse anti-HA antibody, FIG. 8
Method: as §1, §2

B1: mouse sFRP1 (other, UniProt Q8C4U3 32-314, looked up)
chain: SEYDYVSFQSDIGSYQSGRFYTKPPQCVDIPVDLRLCHNVGYKKMVLPNLLEHETMAEVKQQASSWVPLLNKNCHMGTQVFLCSLFAPVCLDRPIYPCRWLCEAVRDSCEPVMQFFGFYWPEMLKCDKFPEGDVCIAMTPPNTTEASKPQGTTVCPPCDNELKSEAIIEHLCASEFALRMKIKEVKKENGDKKIVPKKKKPLKLGPIKKKELKRLVLFLKNGADCPCHQLDNLSHNFLIMGRKVKSQYLLTAIHKWDKKNKEFKNFMKRMKNHECPTFQSVFK
notes: Secreted protein; also called msFRP1; msFRP-1
In the case of B1, the “molar ratio of the two bands in the purified complex” value (mouse Wnt1 [1]) is reported as ~1 molar ratio (sFRP1:Wnt-1), the binding result [2] is reported as “binds” and the “fold induction above background, HEK293 TCF9-SEAP hFz4/hLRP5 Wnt Reporter assay, conditioned media of CHO cells co-expressing mWnt1 and msFRP1” value (mouse Wnt1 [3]) is reported as 22 fold.

B2: mouse sFRP1-His (other, UniProt Q8C4U3 32-314, looked up, not shown: small tags and cut ends)
chain: B1 chain
With B2 the “fold induction above background, HEK293 TCF9-SEAP hFz4/hLRP5 Wnt Reporter assay, conditioned media of CHO cells co-expressing mWnt1 and msFRP1-His” value (mouse Wnt1 [3]) was 17 fold.

B3: His tagged-mouse sFRP2 (other, UniProt P97299 25-295, looked up)
chain: LFLFGQPDFSYKRSNCKPIPANLQLCHGIEYQNMRLPNLLGHETMKEVLEQAGAWIPLVMKQCHPDTKKFLCSLFAPVCLDDLDETIQPCHSLCVQVKDRCAPVMSAFGFPWPDMLECDRFPQDNDLCIPLASSDHLLPATEEAPKVCEACKTKNEDDNDIMETLCKNDFALKIKVKEITYINRDTKIILETKSKTIYKLNGVSERDLKKSVLWLKDSLQCTCEEMNDINAPYLVMGQKQGGELVITSVKRWQKGQREFKRISRSIRKLQC
notes: also called msFRP2; not shown: His tag
B3: binds [4].

B4: HA tagged-mouse sFRP5 (other, UniProt Q9WU66 22-314, looked up)
chain: APTRGQEYDYYGWQAEPLHGRSYSKPPQCLDIPADLPLCHTVGYKRMRLPNLLEHESLAEVKQQASSWLPLLAKRCHSDTQVFLCSLFAPVCLDRPIYPCRSLCEAARAGCAPLMEAYGFPWPEMLHCHKFPLDNDLCIAVQFGHLPATAPPVTKICAQCEMEHSADGLMEQMCSSDFVVKMRIKEIKIDNGDRKLIGAQKKKKLLKAGPLKRKDTKKLVLHMKNGASCPCPQLDNLTGSFLVMGRKVEGQLLLTAVYRWDKKNKEMKFAVKFMFSYPCSLYYPFFYGAAEPH
notes: not shown: HA tag
B4: binds [5].
